The results in this text go back to PMC12112590, “NDF/GLYR1 Promotes RNA Polymerase II Processivity via Pol II Binding and Nucleosome Destabilization” (International Journal of Molecular Sciences, 2025).

For this test, the target named is T1, Rpb1 subunit of yeast Pol II (S. cerevisiae, UniProt P04050 1-1733).
T1 construct: Rpb1, largest subunit of S. cerevisiae RNA polymerase II; identified as the labelled band after SDS-PAGE; source: subunit within purified S. cerevisiae Pol II
The test can be described thus: proximity labelling; in vitro biotinylation (BioID): 0-8 pmol hNDF-BirA* with 25 pmol yPol II in 20 μL; 20 mM HEPES pH 7.5, 10 mM MgCl2, 100 mM KCl, 1.5 mM ATP, 5% glycerol, 0.5 μM biotin; 30 °C, 1 h; SDS-PAGE and streptavidin-HRP blot. The following applies: both partners purified.

T1 sequence (P04050 whole entry): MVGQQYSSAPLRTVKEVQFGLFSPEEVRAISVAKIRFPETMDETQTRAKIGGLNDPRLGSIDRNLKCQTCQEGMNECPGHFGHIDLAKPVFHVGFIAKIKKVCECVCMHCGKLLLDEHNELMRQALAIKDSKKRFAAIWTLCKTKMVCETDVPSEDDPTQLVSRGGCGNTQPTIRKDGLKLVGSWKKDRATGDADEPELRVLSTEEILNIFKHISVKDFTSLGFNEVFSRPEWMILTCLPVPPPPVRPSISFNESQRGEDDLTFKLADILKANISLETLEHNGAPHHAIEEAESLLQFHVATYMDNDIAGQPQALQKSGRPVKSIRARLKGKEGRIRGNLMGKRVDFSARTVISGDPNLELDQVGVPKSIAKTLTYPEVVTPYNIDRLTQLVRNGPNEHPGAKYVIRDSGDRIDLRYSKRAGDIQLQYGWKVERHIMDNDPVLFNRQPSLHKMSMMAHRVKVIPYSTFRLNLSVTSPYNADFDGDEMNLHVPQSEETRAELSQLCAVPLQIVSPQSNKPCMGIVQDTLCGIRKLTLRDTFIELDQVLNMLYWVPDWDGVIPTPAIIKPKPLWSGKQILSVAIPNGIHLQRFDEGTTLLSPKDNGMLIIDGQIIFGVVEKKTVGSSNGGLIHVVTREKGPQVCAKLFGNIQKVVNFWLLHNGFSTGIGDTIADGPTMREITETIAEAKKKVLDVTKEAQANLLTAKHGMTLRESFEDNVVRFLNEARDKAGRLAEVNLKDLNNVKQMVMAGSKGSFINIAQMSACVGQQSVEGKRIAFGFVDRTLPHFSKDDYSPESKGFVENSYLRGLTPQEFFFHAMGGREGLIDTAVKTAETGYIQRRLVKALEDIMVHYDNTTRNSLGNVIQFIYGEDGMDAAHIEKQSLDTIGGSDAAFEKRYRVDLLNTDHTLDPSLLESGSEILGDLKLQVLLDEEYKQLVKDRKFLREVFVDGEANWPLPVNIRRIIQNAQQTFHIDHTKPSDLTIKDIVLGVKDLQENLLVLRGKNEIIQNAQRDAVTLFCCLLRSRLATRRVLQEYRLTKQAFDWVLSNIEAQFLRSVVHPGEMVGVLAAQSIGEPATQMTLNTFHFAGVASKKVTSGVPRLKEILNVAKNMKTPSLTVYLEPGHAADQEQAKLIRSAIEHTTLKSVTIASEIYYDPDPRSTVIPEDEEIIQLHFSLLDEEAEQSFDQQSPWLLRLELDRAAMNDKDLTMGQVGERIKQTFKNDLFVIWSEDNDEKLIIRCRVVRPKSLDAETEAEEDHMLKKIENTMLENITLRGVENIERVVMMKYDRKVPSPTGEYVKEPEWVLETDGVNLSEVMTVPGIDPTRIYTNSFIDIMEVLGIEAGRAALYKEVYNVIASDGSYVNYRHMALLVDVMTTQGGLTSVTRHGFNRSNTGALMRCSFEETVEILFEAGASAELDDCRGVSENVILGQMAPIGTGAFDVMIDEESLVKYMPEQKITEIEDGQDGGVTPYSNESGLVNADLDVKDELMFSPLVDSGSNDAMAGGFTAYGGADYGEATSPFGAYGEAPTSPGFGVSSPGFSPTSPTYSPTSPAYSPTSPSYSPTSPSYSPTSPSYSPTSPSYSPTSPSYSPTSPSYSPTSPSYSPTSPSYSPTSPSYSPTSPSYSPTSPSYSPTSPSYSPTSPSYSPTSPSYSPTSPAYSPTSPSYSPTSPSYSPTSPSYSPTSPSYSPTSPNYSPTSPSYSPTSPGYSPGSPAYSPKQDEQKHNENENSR

B1: BirA*-hNDF fusion protein (natural protein, human, UniProt Q49A26 1-553, looked up)
chain: MAAVSLRLGDLVWGKLGRYPPWPGKIVNPPKDLKKPRGKKCFFVKFFGTEDHAWIKVEQLKPYHAHKEEMIKINKGKRFQQAVDAVEEFLRRAKGKDQTSSHNSSDDKNRRNSSEERSRPNSGDEKRKLSLSEGKVKKNMGEGKKRVSSGSSERGSKSPLKRAQEQSPRKRGRPPKDEKDLTIPESSTVKGMMAGPMAAFKWQPTASEPVKDADPHFHHFLLSQTEKPAVCYQAITKKLKICEEETGSTSIQAADSTAVNGSITPTDKKIGFLGLGLMGSGIVSNLLKMGHTVTVWNRTAEKCDLFIQEGARLGRTPAEVVSTCDITFACVSDPKAAKDLVLGPSGVLQGIRPGKCYVDMSTVDADTVTELAQVIVSRGGRFLEAPVSGNQQLSNDGMLVILAAGDRGLYEDCSSCFQAMGKTSFFLGEVGNAAKMMLIVNMVQGSFMATIAEGLTLAQVTGQSQQTLLDILNQGQLASIFLDQKCQNILQGNFKPDFYLKYIQKDLRLAIALGDAVNHPTPMAAAANEVYKRAKALDQSDNDMSAVYRAYIH
notes: human NDF / GLYR1 fused to the promiscuous biotin ligase BirA*; The name is printed in both orders (BirA*-hNDF, hNDF-BirA*); the construct's name puts BirA* before hNDF; also called hNDF-BirA*; hNDF-BirA; source: pET21b-N-His6-BirA*-hNDF expression construct, purified as previously described [44]; not shown: BirA* (promiscuous biotin ligase), N-terminal, kept
For the molecule B1, the binding result is recorded as “binds”.
